In patent US20050176101:

Experiments:
[1] = biological target: T1, His-tagged human Abl kinase domain G227-V515 coexpressed with PTP1b phosphatase domain (pET-SPEC BI-PTP Abl G227-V515-X), unphosphorylated
T1 chain: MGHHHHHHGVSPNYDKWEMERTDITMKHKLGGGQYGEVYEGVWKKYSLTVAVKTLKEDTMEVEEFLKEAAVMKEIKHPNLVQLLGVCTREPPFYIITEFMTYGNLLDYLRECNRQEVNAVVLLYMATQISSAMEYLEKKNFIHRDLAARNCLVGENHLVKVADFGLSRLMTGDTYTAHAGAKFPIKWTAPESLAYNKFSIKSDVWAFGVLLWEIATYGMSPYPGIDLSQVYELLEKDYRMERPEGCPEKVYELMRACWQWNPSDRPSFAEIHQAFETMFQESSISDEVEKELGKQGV

[2] = biological target: His-tagged human c-MET kinase domain constructs (various lengths) coexpressed with PTP1B from pET-N6 BI-PTP, unphosphorylated

B1: human PTP1b phosphatase domain, residues Met 1 to Gly 283 (protein)
chain: MEMEKEFEQIDKSGSWAAIYQDIRHEASDFPCRVAKLPKNKNRNRYRDVSPFDHSRIKLHQEDNDYINASLIKMEEAQRSYILTQGPLPNTCGHFWEMVWEQKSRGVVMLNRVMEKGSLKCAQYWPQKEEKEMIFEDTNLKLTLISEDIKSYYTVRQLELENLTTQETREILHFHYTTWPDFGVPESPASFLNFLFKVRESGSLSPEHGPVVVHCSAGIGRSGTFCLADTCLLLMDKRKDPSSVDIKKVLLEMRKFRMGLIQTADQLRFSYLAVIEGAKFIMG
How did the “state of phosphorylation detectable with PY20 anti-phospho-Tyr antibody (Western blot)” value [1] turn out when B1 was run?
The value was “the Abl coexpressed with PTP1B has little or no phosphorylation above background, whereas Abl coexpressed alone is highly phosphorylated”.

What about the “state of phosphorylation (methods as described for the Abl kinase domain)” value [2] of the same protein?
The value was “When expressed alone the MET was phosphorylated and when coexpressed with PTP1B the MET was unphosphorylated”.
